The subject of data set [1] is T1, OMNI-50 (Ezakiella peruensis strain M6.X2).
T1 sequence: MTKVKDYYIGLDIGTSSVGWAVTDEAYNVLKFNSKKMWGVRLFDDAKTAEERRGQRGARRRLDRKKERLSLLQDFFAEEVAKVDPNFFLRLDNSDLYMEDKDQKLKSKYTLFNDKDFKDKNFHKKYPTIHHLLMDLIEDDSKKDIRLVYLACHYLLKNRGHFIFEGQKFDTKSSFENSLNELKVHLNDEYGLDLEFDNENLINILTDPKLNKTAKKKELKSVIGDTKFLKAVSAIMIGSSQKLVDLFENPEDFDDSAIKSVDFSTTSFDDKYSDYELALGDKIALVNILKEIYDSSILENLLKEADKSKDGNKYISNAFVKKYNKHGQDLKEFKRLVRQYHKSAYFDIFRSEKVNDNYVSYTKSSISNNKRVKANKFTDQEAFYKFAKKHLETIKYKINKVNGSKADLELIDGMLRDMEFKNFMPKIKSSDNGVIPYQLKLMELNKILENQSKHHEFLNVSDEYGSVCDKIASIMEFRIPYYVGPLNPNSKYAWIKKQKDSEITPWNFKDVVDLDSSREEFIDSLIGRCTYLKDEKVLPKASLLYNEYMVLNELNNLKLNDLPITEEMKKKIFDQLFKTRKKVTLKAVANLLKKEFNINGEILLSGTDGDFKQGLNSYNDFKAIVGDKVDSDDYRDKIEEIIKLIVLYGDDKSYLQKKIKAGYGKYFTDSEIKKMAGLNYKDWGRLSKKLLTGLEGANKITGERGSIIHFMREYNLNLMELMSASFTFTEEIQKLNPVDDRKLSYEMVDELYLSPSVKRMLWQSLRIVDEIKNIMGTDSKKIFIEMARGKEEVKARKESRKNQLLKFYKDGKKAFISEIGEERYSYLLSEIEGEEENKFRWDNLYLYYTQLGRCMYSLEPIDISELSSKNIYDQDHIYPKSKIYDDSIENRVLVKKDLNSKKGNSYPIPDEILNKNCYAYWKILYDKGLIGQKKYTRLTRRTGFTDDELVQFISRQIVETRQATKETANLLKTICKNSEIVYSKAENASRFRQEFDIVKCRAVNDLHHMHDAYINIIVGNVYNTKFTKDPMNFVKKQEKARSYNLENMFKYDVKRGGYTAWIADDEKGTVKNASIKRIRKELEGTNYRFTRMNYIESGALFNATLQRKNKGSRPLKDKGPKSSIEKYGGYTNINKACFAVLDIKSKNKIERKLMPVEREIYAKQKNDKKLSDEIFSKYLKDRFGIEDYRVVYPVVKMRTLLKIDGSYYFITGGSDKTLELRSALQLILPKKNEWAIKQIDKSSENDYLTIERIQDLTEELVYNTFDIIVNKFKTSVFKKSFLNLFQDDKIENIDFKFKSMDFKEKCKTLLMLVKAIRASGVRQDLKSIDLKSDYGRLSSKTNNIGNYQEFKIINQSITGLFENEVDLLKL
Briefly: cleavage_in_vitro. Particulars: TXTL PAM depletion, PAM NGG; some activity with NAG and NGA; sgRNA V1 and V2.

In another data set the target is T2, OMNI-50 (Ezakiella peruensis strain M6.X2).
T2 chain: T1 sequence
Briefly: cell_activity; PAM NGG; RNP in U2OS. To be noted: tags: SV40 NLS N-terminal, HA-SV40 NLS-8xHis C-terminal (pET9a). As for the experimental part: FIG. 5A-FIG. 5D: OMNI-50 activity Assay as RNP. OMNI-50 nuclease was over-expressed and purified. The purified protein was complexed with synthetic sgRNA to form RNPs. For the in-vitro assays (FIG. 5A and FIG. 5B) RNPs were incubated with a linear DNA template containing the corresponding target and PAM sequences (listed in Table 5). Activity was verified by cleavage of the linear template. For the in-vivo assays (FIG. 5C and FIG. 5D), U2OS cells were electroporated with RNPs and activity was determined by measurement of indel frequency by NGS. FIG. 5A: Activity assay of OMNI-50 RNP with different spacer lengths (17-23 bps) of guide 35 (Table 10). FIG. 5B: Decreasing amounts of RNPs (4 pmol, 2 pmol, 1.2 pmol, 0.6 pmol and 0.2 pmol) with spacer lengths 20-23 nts were incubated with 100 ng DNA target template. FIG. 5C: Activity assay for OMNI-50 as RNP in U2OS cells: RNPs with spacer lengths 17-23 bps were electroporated into U2OS cell line and editing levels (indels) measured by NGS. FIG. 5D: Activity assay for OMNI-50 as RNP in U2OS cells: RNPs with ELANE g35 sgRNA V1-V4 were electroporated into U2OS cell line and editing levels (indels) measured by NGS.
Spacer length optimization was also performed in a mammalian cell context. RNPs were assembled by mixing 100 uM nuclease with 120 uM of synthetic guide with different spacer lengths (17-23 nt, Table 5) and 100 uM Cas9 electroporation enhancer (IDT). After 10 minutes of incubation at room temperature, the RNP complexes were mixed with 200,000 pre-washed U2OS, iPSC, or HSC cells and electroporated using Lonza SE or P3 Cell Line 4D-Nucleofector™ X Kit with the DN100 or CA137 program, respectively, according to the manufacture's protocol. At 72 h cells were lysed and their genomic DNA was used in a PCR reaction to amplify the corresponding putative genomic targets. Amplicons were subjected to NGS and the resulting sequences were then used to calculate the percentage of editing events.

Regarding “GGAAGAGCAGAGCCUUGGUCUCGUUUGAGAGUUAUGUAAGAAAUUACAUGACGAGUUCAAAUAAAAAUUUAUUCAAACCGCCUAUUUAUAGGCCGCAGAUGUUCUGCAUUAUGCUUGCUAUUGCAAGCUUUUUU / GGAAGAGCAGAGCCTTGGTCTCNNNNNNNN / NNNNNNNNGAGACCAAGGCTCTGCTCTTCC [T2 sgRNA V2 ; T2 protospacer 8N PAM library]”, in data set [1], the activity (1-depletion score) amounted to 0.98.

B1: ELANE g35 sgRNA V2 22 nt spacer ; ELANE g35 on-target (ssRNA ; dsDNA)
RNA: GCAGUCCGGGCUGGGAGCGGGUGUUUGAGAGUUAUGUAAGAAAUUACAUGACGAGUUCAAAUAAAAAUUUAUUCAAACCGCCUAUUUAUAGGCCGCAGAUGUUCUGCAUUAUGCUUGCUAUUGCAAGCUUUUUU
DNA 1: CTGTTGCTGCAGTCCGGGCTGGGAGCGGGTGGGGAGCAGAGGG
DNA 2: CCCTCTGCTCCCCACCCGCTCCCAGCCCGGACTGCAGCAACAG
modifications: three 2'-OMe 3'-PS at 5' and 3' ends
In turn, B1 came in with an activity in the data set with OMNI-50 of 90.9 % indels.

B2: ELANE g35 sgRNA V2 17 nt spacer ; ELANE g35 on-target (ssRNA ; dsDNA)
RNA: CCGGGCUGGGAGCGGGUGUUUGAGAGUUAUGUAAGAAAUUACAUGACGAGUUCAAAUAAAAAUUUAUUCAAACCGCCUAUUUAUAGGCCGCAGAUGUUCUGCAUUAUGCUUGCUAUUGCAAGCUUUUUU
DNA 1: B1 DNA 1
DNA 2: B1 DNA 2
modifications: three 2'-OMe 3'-PS at 5' and 3' ends
Take B2: in the data set with OMNI-50, the activity was determined as 0.54 % indels.

B3: ELANE g35 sgRNA V2 20 nt spacer ; ELANE g35 on-target (ssRNA ; dsDNA)
RNA: AGUCCGGGCUGGGAGCGGGUGUUUGAGAGUUAUGUAAGAAAUUACAUGACGAGUUCAAAUAAAAAUUUAUUCAAACCGCCUAUUUAUAGGCCGCAGAUGUUCUGCAUUAUGCUUGCUAUUGCAAGCUUUUUU
DNA 1: B1 DNA 1
DNA 2: B1 DNA 2
modifications: three 2'-OMe 3'-PS at 5' and 3' ends
B3: the activity in the data set with OMNI-50 is 43.8 % indels.

Values taken from US20220202913, “NOVEL OMNI-50 CRISPR NUCLEASE” (EmendoBio Inc., published 2022).
